# From PMC6019071
# Columns and labels:
# [1] = target: core CoREST complex LSD1/HDAC1/CoREST1 (LHC) (UniProt O60341); test: enzyme inhibition (fluorogenic HDAC deacetylation assay); LHC (1 nM) pretreated 30 min on ice with inhibitor in 50 mM HEPES 7.5, 100 mM KCl, 100 uM InsP6, 0.2 mg/mL BSA; 50 uM fluorogenic peptide substrate, 37 C, 15 min; Ki = IC50/([S]/Km + 1), competitive model
# [2] = target: core CoREST complex LSD1/HDAC1/CoREST1 (LHC) (UniProt O60341); test: enzyme inhibition (fluorogenic HDAC deacetylation assay); Dixon plot of LHC inhibition by H3K14Hd-modified nucleosomes versus peptide substrate
Substance,fold lower Ki than the corresponding Hd nucleosome [1],Ki [1],Ki [2]
H3K14Hd containing nucleosome (146 bp mononucleosome with semisynthetic H3K4me2K14Hd) (complex),–,40 nM,35 nM
semisynthetic histone H3 H3K4me2K14Hd (from UniProt P84233 2-136) (natural protein),30 fold,–,–

# Other lines, results leading:
fold lower Ki than the corresponding Hd nucleosome [1],Ki [1],Ki [2],Substance
30 fold,–,–,H3K4me2K9Hd(1-34) synthetic H3 peptide (from UniProt P84233 2-35)
30 fold,–,–,H3K4me2K14Hd(1-34) synthetic H3 peptide (from UniProt P84233 2-35)
–,60 nM,–,H3K9Hd containing nucleosome (146 bp mononucleosome with semisynthetic H3K4me2K9Hd) (complex)
